Data as given in publication PMC9719539 (2022).
Read-outs that look alike come from different tables or passages of the source. Positions of bridges follow the written chain, without caps; N, C: chain ends. Non-standard residues stand in square brackets, D forms with d. No end group written: not given here.

B1: Biogen-αVβ1.5 Fab (Fab, V domains shown)
VH: EVQLVESGGGVVQPGRSLRLSCAASGFTFKYYGMHWVRQAPGKGLEWVASIWYDGSNKKYADSVKGRFTISRDNSKNTLYLQMNSLRAEDTAVYYCARGGPTRGDGTRVYYYGMDVWGQGTTVTVSS
VL: EIVMTQSPATLSVSPGERATLSCRASQSVSSNLAWYQQKPGQAPRLLIYSASTRATGIPARFSGSGSGTEFTLTISSLQSEDFAVYYCQQYYHHPFTFGGGTKVEIK
B2: integrin αVβ3 on intact cells (receptor)
chain 1: FNLDVDSPAEYSGPEGSYFGFAVDFFVPSASSRMFLLVGAPKANTTQPGIVEGGQVLKCDWSSTRRCQPIEFDATGNRDYAKDDPLEFKSHQWFGASVRSKQDKILACAPLYHWRTEMKQEREPVGTCFLQDGTKTVEYAPCRSQDIDADGQGFCQGGFSIDFTKADRVLLGGPGSFYWQGQLISDQVAEIVSKYDPNVYSIKYNNQLATRTAQAIFDDSYLGYSVAVGDFNGDGIDDFVSGVPRAARTLGMVYIYDGKNMSSLYNFTGEQMAAYFGFSVAATDINGDDYADVFIGAPLFMDRGSDGKLQEVGQVSVSLQRASGDFQTTKLNGFEVFARFGSAIAPLGDLDQDGFNDIAIAAPYGGEDKKGIVYIFNGRSTGLNAVPSQILEGQWAARSMPPSFGYSMKGATDIDKNGYPDLIVGAFGVDRAILYRARPVITVNAGLEVYPSILNQDNKTCSLPGTALKVSCFNVRFCLKADGKGVLPRKLNFQVELLLDKLKQKGAIRRALFLYSRSPSHSKNMTISRGGLMQCEELIAYLRDESEFRDKLTPITIFMEYRLDYRTAADTTGLQPILNQFTPANISRQAHILLDCGEDNVCKPKLEVSVDSDQKKIYIGDDNPLTLIVKAQNQGEGAYEAELIVSIPLQADFIGVVRNNEALARLSCAFKTENQTRQVVCDLGNPMKAGTQLLAGLRFSVHQQSEMDTSVKFDLQIQSSNLFDKVSPVVSHKVDLAVLAAVEIRGVSSPDHVFLPIPNWEHKENPETEEDVGPVVQHIYELRNNGPSSFSKAMLHLQWPYKYNNNTLLYILHYDIDGPMNCTSDMEINPLRIKISSLQTTEKNDTVAGQGERDHLITKRDLALSEGDIHTLGCGVAQCLKIVCQVGRLDRGKSAILYVKSLLWTETFMNKENQNHSYSLKSSASFNVIEFPYKNLPIEDITNSTLVTTNVTWGIQPAPMPVPVWVIILAVLAGLLLLAVLVFVMYRMGFFKRVRPPQEEQEREQLQPHENGEGNSET
chain 2: GPNICTTRGVSSCQQCLAVSPMCAWCSDEALPLGSPRCDLKENLLKDNCAPESIEFPVSEARVLEDRPLSDKGSGDSSQVTQVSPQRIALRLRPDDSKNFSIQVRQVEDYPVDIYYLMDLSYSMKDDLWSIQNLGTKLATQMRKLTSNLRIGFGAFVDKPVSPYMYISPPEALENPCYDMKTTCLPMFGYKHVLTLTDQVTRFNEEVKKQSVSRNRDAPEGGFDAIMQATVCDEKIGWRNDASHLLVFTTDAKTHIALDGRLAGIVQPNDGQCHVGSDNHYSASTTMDYPSLGLMTEKLSQKNINLIFAVTENVVNLYQNYSELIPGTTVGVLSMDSSNVLQLIVDAYGKIRSKVELEVRDLPEELSLSFNATCLNNEVIPGLKSCMGLKIGDTVSFSIEAKVRGCPQEKEKSFTIKPVGFKDSLIVQVTFDCDCACQAQAEPNSHRCNNGNGTFECGVCRCGPGWLGSQCECSEEDYRPSQQDECSPREGQPVCSQRGECLCGQCVCHSSDFGKITGKYCECDDFSCVRYKGEMCSGHGQCSCGDCLCDSDWTGYYCNCTTRTDTCMSSNGLLCSGRGKCECGSCVCIQPGSYGDTCEKCPTCPDACTFKKECVECKKFDRGALHDENTCNRYCRDEIESVKELKDTGKDAVNCTYKNEDDCVVRFQYYEDSSGKSILYVVEEPECPKGPDILVVLLSVMGAILLIGLAALLIWKLLITIHDRKEFAKFEEERARAKWDTANNPLYKEATSTFTNITYRGT
B3: integrin αVβ5 on intact cells (receptor)
chain 1: B2 chain 1
chain 2: GLNICTSGSATSCEECLLIHPKCAWCSKEDFGSPRSITSRCDLRANLVKNGCGGEIESPASSFHVLRSLPLSSKGSGSAGWDVIQMTPQEIAVNLRPGDKTTFQLQVRQVEDYPVDLYYLMDLSLSMKDDLDNIRSLGTKLAEEMRKLTSNFRLGFGSFVDKDISPFSYTAPRYQTNPCIGYKLFPNCVPSFGFRHLLPLTDRVDSFNEEVRKQRVSRNRDAPEGGFDAVLQAAVCKEKIGWRKDALHLLVFTTDDVPHIALDGKLGGLVQPHDGQCHLNEANEYTASNQMDYPSLALLGEKLAENNINLIFAVTKNHYMLYKNFTALIPGTTVEILDGDSKNIIQLIINAYNSIRSKVELSVWDQPEDLNLFFTATCQDGVSYPGQRKCEGLKIGDTASFEVSLEARSCPSRHTEHVFALRPVGFRDSLEVGVTYNCTCGCSVGLEPNSARCNGSGTYVCGLCECSPGYLGTRCECQDGENQSVYQNLCREAEGKPLCSGRGDCSCNQCSCFESEFGKIYGPFCECDNFSCARNKGVLCSGHGECHCGECKCHAGYIGDNCNCSTDISTCRGRDGQICSERGHCLCGQCQCTEPGAFGEMCEKCPTCPDACSTKRDCVECLLLHSGKPDNQTCHSLCRDEVITWVDTIVKDDQEAVLCFYKTAKDCVMMFTYVELPSGKSNLTVLREPECGNTPNAMTILLAVVGSILLVGLALLAIWKLLVTIHDRREFAKFQSERSRARYEMASNPLYRKPISTHTVDFTFNKFNKSYNGTVD

Columns and labels:
[1] = target: T1, integrin α5β1 on intact cells (human, UniProt P08648 42-1049; P05556 21-798); experiment: FACS
T1 sequence (P08648 42-1049, chain 1 of 2): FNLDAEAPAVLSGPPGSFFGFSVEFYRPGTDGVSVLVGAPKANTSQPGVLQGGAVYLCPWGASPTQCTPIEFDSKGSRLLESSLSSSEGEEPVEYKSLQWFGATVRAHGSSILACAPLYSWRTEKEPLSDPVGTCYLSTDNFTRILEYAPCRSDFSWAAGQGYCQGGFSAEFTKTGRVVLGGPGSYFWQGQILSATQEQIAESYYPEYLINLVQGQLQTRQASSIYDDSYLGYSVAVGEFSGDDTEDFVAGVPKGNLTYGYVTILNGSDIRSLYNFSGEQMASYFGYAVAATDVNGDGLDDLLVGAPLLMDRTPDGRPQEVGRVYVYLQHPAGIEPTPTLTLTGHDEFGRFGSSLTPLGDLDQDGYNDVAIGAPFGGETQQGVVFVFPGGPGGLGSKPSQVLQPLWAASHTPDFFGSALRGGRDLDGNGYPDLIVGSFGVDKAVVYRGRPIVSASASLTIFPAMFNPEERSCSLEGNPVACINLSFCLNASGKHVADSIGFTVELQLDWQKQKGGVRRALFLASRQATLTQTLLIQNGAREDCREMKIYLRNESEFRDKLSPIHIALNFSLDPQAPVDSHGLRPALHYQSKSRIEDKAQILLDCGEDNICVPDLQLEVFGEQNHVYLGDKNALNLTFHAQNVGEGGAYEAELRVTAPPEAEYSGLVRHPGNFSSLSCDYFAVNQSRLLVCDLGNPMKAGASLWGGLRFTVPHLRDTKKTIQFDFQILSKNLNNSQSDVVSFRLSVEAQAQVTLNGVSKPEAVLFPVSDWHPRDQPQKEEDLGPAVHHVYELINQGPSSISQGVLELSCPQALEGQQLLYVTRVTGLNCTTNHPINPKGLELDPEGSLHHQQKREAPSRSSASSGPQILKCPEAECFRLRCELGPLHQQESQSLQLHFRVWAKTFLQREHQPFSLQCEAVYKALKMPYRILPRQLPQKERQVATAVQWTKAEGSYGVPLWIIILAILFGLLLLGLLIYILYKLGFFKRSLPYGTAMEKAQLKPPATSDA
T1 sequence (P05556 21-798, chain 2 of 2): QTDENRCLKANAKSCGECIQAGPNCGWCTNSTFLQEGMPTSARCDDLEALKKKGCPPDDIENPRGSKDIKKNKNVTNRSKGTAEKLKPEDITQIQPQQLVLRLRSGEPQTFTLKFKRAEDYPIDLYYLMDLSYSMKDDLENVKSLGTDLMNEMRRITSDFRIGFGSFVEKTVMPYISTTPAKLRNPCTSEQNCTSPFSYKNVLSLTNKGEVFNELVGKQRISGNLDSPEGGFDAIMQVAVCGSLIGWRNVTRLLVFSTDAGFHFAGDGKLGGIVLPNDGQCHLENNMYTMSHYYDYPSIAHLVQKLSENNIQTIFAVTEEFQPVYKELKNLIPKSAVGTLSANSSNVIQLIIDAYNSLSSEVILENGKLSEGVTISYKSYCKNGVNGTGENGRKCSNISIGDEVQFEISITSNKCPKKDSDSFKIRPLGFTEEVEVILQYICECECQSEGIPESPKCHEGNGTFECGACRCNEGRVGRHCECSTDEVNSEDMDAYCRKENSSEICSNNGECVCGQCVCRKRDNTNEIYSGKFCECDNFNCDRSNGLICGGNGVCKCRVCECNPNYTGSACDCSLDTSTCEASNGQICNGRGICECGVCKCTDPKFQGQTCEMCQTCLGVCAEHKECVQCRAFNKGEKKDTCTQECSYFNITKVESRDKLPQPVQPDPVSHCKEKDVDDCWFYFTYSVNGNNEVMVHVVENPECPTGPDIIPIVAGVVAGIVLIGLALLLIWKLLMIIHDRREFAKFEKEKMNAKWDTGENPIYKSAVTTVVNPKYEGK

[2] = target: B2; experiment: FACS
[3] = target: integrin αVβ1 on intact cells (human, UniProt P06756 31-1048; P05556 21-798); experiment: FACS
Sequence of integrin αVβ1 on intact cells (P05556 21-798, one chain of several): as the sequence (P05556 21-798, chain 2 of 2) above

IPI-αVβ5.9 [4] = experiment: FACS; L15 + 1 mM Mn2+
IPI-αVβ3.13 [5] = experiment: FACS; L15 + 1 mM Mn2+
IPI-αVβ5.9 [6] = experiment: FACS; L15 medium
IPI-αVβ3.13 [7] = experiment: FACS; L15 medium
[8] = target: T1, integrin α5β1 on intact cells; experiment: FACS; remark: listed apart in the source

## ACRGDGWCGK (disulfide 2-8 (inferred)) [cyclic-ACRGDGWCGK]
[1]
  Kd: 3.7 µM

## B1
[2]
  Kd: 78 µM
[3]
  Kd: 24 nM

## B2
IPI-αVβ5.9 [4]
  Kd: 16 µM
IPI-αVβ3.13 [5]
  Kd: 0.023 µM
IPI-αVβ5.9 [6]
  Kd: 10 µM
IPI-αVβ3.13 [7]
  Kd: 56 nM

## B3
IPI-αVβ5.9 [4]
  Kd: 0.024 µM
IPI-αVβ3.13 [5]
  Kd: 50 µM
IPI-αVβ5.9 [6]
  Kd: 0.043 µM

## cyclo(RGD[dF]K) [cyclo[Arg-Gly-Asp-D-Phe-Lys] (cRGDfK)]
[8]
  Kd: 86 nM
